Experimental data reported in paper PMC6192543 (Journal of the American Chemical Society, 2018).

Target: human A2A adenosine receptor variant A2AAR[K233W] (human, UniProt P29274 1-316, N154Q | K233W, uniformly 15N-labelled, ~70% 2H)
Experiment: NMR titration

Sequence of human A2A adenosine receptor variant A2AAR[K233W] (P29274 1-316 N154Q/K233W): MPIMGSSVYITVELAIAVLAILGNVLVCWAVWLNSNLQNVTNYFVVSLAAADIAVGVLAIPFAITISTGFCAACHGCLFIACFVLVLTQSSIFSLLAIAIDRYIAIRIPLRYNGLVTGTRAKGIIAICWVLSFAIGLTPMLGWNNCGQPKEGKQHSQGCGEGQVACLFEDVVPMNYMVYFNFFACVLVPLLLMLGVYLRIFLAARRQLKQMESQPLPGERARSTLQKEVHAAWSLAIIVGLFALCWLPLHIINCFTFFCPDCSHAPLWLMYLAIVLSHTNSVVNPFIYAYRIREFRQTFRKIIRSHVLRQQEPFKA

RVFNDARDIIQRMHLRQYELL (peptide, UniProt P63092 374-394, looked up) [C-terminal polypeptide GαS(374–394)[C379A]]: binds.
